Results taken from the supplement of paper PMC9170038.

Tested on: MS2 coat protein
Test: apparent KD of MS2 coat protein; designed switch direction (-1 OFF switch, 1 ON switch): 1; higher = weaker reporter binding
Outline: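 Each step of the titration lasted 0.8–1.5 h at the lowest concentration and 10–20 min at the highest. The protein, SNAP-549-labelled MS2 coat protein, went from 0.7 or 1.5 nM doubling to 3 µM over RNA switches transcribed on Illumina chips by stalled E. coli RNA polymerase. Normalised cluster fluorescence was curve-fitted, and the per-design median over clusters is given as apparent KD.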

[1] = input ligand: microRNA oligo, concentration not stated
[2] = Eterna round: R95, input ligand: FMN 200 uM
[3] = Eterna round: R95, input ligand: microRNA oligo, concentration not stated
[4] = Eterna round: R95, input ligand: none

Sequence	apparent KD of MS2 coat protein (input ligand: FMN 200 uM) [nM]	apparent KD of MS2 coat protein [1] [nM]	apparent KD of MS2 coat protein (input ligand: none) [nM]	apparent KD of MS2 coat protein [2] [nM]	apparent KD of MS2 coat protein [3] [nM]	apparent KD of MS2 coat protein [4] [nM]
AUGAUAUACUCAGGAUAUAUGCGAGACGACGAGAUAGAAGGGAGAAGAUAAUGACGUACAUGAGGAUCACCCAUGUGAGGAUCA [Same State NG1 S4] (Eterna round: R96, puzzle: Same State NG 1)	26.9	20.6	34	–	–	–
UUGAGGUGUCAAGGAUAUGCUACCGUUUCGGUAGCAGAAGGUGAUCACAUGAGGAUCACCCAUGUAUGCAUGCGUGAGCGUGCU [JL SSNG1 3.61] (Eterna round: R96, puzzle: Same State NG 1)	–	23.4	–	–	–	–
UAGUUACUAUCUCAGGAUAUCAUGUCAAAGACAUGAGGAUCACCCAUGUACCAGGAAACUGGUUAUGAGAAGGGAGAUAGUAACU [Mat - Same State 2 - Mod - D55] (puzzle: Same State 2)	–	–	–	134	104	1070
GUAGGACAUGAGGAUCACCCAUGUGGGAGGGAACGAGGAUAUGUGAUUAGCGAGGAGAGGACAGAAGGCGUGGUAG [JR_SS1_Sub024] (puzzle: Same State 1)	–	–	–	55.2	35.4	50.8
CUAUCUACAGGUGUCUUUGCUCGUUUUAUACAUGAGGAUCACCCAUGUUAUAGCCCGGUGCUUGCGCUGGGCUGAUU [JL ViennaUCT Tearor mod 7] (puzzle: Sensor for hsa-mir-208a)	–	–	–	100	15.5	95.3
ACAAGCUUUUUGCUCCUCUUAUGUCCGAAACAUGAGGAUCACCCAUGUAUAGAUUGUGUGUUGUUGUAGAUGCAAGA [JR_SHM208A_Sub061] (puzzle: Sensor for hsa-mir-208a)	–	–	–	69.3	72	71.8
GUGGUCAGACAUGAGGAUCACCCAUGUGGAAUAAAUAAGGAAUAGGAUAUGGAAUAUAGGAUAUACCAGAAGGAUUGGUUGGUG (Eterna round: R96, puzzle: Same State NG 3)	96.9	80.4	97	–	–	–
GGUCUAGUUACAGGAUAUGCAUUGCUUUGCGAUGCAGAAGGGUGGUAACAUGAGGAUCACCCAUGUGGGCCAGCGCAAAAGCGC [JL SSNG1 cdp] (Eterna round: R96, puzzle: Same State NG 1)	981	661	1440	–	–	–
UUGAAGAAUUAAGGAUAUCGAGUCAAGAUGUUAAACAUGAGGAUCACCCAUGUGGGUUGCGGUAUCGAGAAGGUAAAUAAGAAG [Mat - Same State NG 2 - JL mod - D54] (Eterna round: R96, puzzle: Same State NG 2)	44.3	29.6	44.8	–	–	–
UGGUGUAACAUGAGGAUCACCCAUGUCACAACCCGGAUAGAGUAGGAUAUGGGCUGAUCACGCAUCCAGAAGGGCUCAUACUUU [Eternabot solution 19] (Eterna round: R96, puzzle: Same State NG 3)	19.7	14.3	16.8	–	–	–
UCUUGGUUUUUGCUCGUUUUUUGUGUUGAACAUGAGGAUCACCCAUGUAUUGUACGGUCCAGUUUGGUAAUGGUCCA [JMF 8] (puzzle: Sensor for hsa-mir-208a)	–	–	–	31.2	20.5	35
GGUGACUUAAGAGGAUAUCCCGUAACAUUCGUCGAUACGAGACAUGAGGAUCACCCAUGUGAAAUGGAGAAGGCUUUCGCAAAG [Eternabot solution 48] (Eterna round: R96, puzzle: Same State NG 2)	52.7	40	58.2	–	–	–
GAGUAGUUGAAAGGAUAUUGAUUGUUAUAGGAUCAAGAAGGUUCUAACAUGAGGAUCACCCAUGUAGGACUAUUCCUGUGUAUC [Parity 83 - Jieux - Same State NG 1] (Eterna round: R96, puzzle: Same State NG 1)	11	8.78	12.5	–	–	–
GCUAGAAUUAAUGCCUACAUGAGGAUCACCCAUGUAUGUAGGCAGGAUAUCGUUUGCAAAGCAAACGAGAAGGGCCUUACUAGC [Mat - Same State NG 3 - JL Mod - D28] (Eterna round: R96, puzzle: Same State NG 3)	21.9	46.1	63.7	–	–	–
AAGAAACAUGAGGAUCACCCAUGUCGAGAGAGACGAGGAUAUCUGAAUCGAUUAGAUUACGGAGAAGGCGUGAAAA [Same State 1.2 (Same State of Confusion2 - minimal change )] (Eterna round: R96, puzzle: Same State 1)	22.1	22	27	–	–	–
GGAUGAUUGACAGGAUAUCAUUUGUAAAUUCGUUGAGAAGGGUCGAUUACUUACACGACGUGUUACAUGAGGAUCACCCAUGUU [SameState NG1 #4] (Eterna round: R96, puzzle: Same State NG 1)	117	101	185	–	–	–
UCUGCAAUUAACGCCUACAUGAGGAUCACCCAUGUAUGUAGGCAGGAUAUCGUUUGCUUUGCAAACGAGAAGGGCUGUAGUAGC [salish99_SSNG3_R04_001] (Eterna round: R96, puzzle: Same State NG 3)	52.4	49.2	61.6	–	–	–
UGGUACAUGGGAGGAUAUCAUGUAGAAACAUGAGGAUCACCCAUGUAGAUGGCCGGUAACCGGGAUGAGAAGGCCCAUGUACCU [JL SSNG1 3.64] (Eterna round: R96, puzzle: Same State NG 2)	27	22.4	30.3	–	–	–
AGUCCAGCCAAAGCUGGACAAAAGCAUGUACAUGAGGAUCACCCAUGUUCAUGUACAAGCUUUUUGCUCGUCUUAAA [Mat - hsa-mir-208a - Mod of JL - 56] (puzzle: Sensor for hsa-mir-208a)	–	–	–	413	16.1	465
UUUAGUUGCGGGCAGGAUAUGUAUUAAAAUACAUGAGGAUCACCCAUGUGCGGGUAUAACACCCGAUAGAAGGGCCAAUCGCGAC [Laonerce - 11] (puzzle: Same State 2)	–	–	–	20.9	53.6	71.9
AGGUGAUAUGGAAAGGAUAUACGGUUUAGGACAUGAGGAUCACCCAUGUGGAAGAUGGCGAGAGAGUAGAAGGUUCGAAAUUGGU [JR_SS@_Sub024] (puzzle: Same State 2)	–	–	–	43.4	75	77.4
GUUAGGAAUCUAGCAAACAUGAGGAUCACCCAUGUUAGUGGGAAGGAUAUGGUACAGAAACUGUACCAGAAGGUCUUAUUGAUU [Omei SS(NG) 3 AV4] (Eterna round: R96, puzzle: Same State NG 3)	40.2	33	59	–	–	–
UGGUAACAUGAGGAUCACCCAUGUCAAAUGAAUCGAGGAUAUGGGAAUUAACAAUAUAAACUAGAAGGCGAAUUUG [Altered State 1-7 - Jieux - Same State 1] (puzzle: Same State 1)	–	–	–	144	284	290
